Experiment [1] addresses purified abnormally phosphorylated tau, mixed with affinity-purified normal tau (human) (UniProt P10636). Kind of experiment: competition ELISA on captured tau mixture; signal of biotinylated AT8 with casein control, no competing antibody (row 111 ng/ml). (In general: ELISA stands for enzyme-linked immunosorbent assay.)
Experiment [2] shares this target. Kind of experiment: competition ELISA on captured tau mixture; signal of biotinylated AT8 with casein control, no competing antibody (row 9 µg/ml).
Experiment [3] shares this target. Kind of experiment: competition ELISA on captured tau mixture; signal of biotinylated AT8 with casein control, no competing antibody (row 1 µg/ml).
Experiment [4] shares this target. Kind of experiment: competition ELISA on captured tau mixture; unlabeled AT8 at 37 ng/ml, competitor biotinylated BT2 (its signal is read).
The target in experiment [5] is PHF-tau (abnormally phosphorylated human tau, 64 and 68 kDa forms, from Alzheimer brain) (human) (UniProt P10636). Kind of experiment: sandwich ELISA, PHF-tau diluted 1/200, fixed concentration of AT8.
Experiment [6] addresses purified abnormally phosphorylated tau, mixed with affinity-purified normal tau (human) (UniProt P10636). Kind of experiment: competition ELISA on captured tau mixture; unlabeled AT8 at 1 µg/ml, competitor biotinylated BT2 (its signal is read).
Experiment [7] has the same target. Kind of experiment: competition ELISA on captured tau mixture; unlabeled AT8 at 333 ng/ml, competitor biotinylated AT8 (its signal is read).
Experiment [8] has the same target. Kind of experiment: competition ELISA on captured tau mixture; signal of biotinylated AT8 with casein control, no competing antibody (row 3 µg/ml).
The target is the same in experiment [9]. Kind of experiment: competition ELISA on captured tau mixture; unlabeled AT8 at 111 ng/ml, competitor biotinylated AT8 (its signal is read).
Experiment [10] has the same target. Kind of experiment: competition ELISA on captured tau mixture; unlabeled AT8 at 37 ng/ml, competitor biotinylated AT8 (its signal is read).
The target is the same in experiment [11]. Kind of experiment: competition ELISA on captured tau mixture; unlabeled AT8 at 111 ng/ml, competitor biotinylated BT2 (its signal is read).
Experiment [12] has the same target. Kind of experiment: competition ELISA on captured tau mixture; unlabeled AT8 at 333 ng/ml, competitor biotinylated BT2 (its signal is read).
Experiment [13] shares this target. Kind of experiment: competition ELISA on captured tau mixture; unlabeled AT8 at 9 µg/ml, competitor biotinylated BT2 (its signal is read).
Experiment [14] deals with PHF-tau (abnormally phosphorylated human tau, 64 and 68 kDa forms, from Alzheimer brain) (human) (UniProt P10636). Kind of experiment: sandwich ELISA, PHF-tau diluted 1/2000, fixed concentration of AT8.
In experiment [15] the target is purified abnormally phosphorylated tau, mixed with affinity-purified normal tau (human) (UniProt P10636). Kind of experiment: competition ELISA on captured tau mixture; unlabeled AT8 at 3 µg/ml, competitor biotinylated BT2 (its signal is read).
Experiment [16] shares this target. Kind of experiment: competition ELISA on captured tau mixture; unlabeled AT8 at 1 µg/ml, competitor biotinylated AT8 (its signal is read).
Experiment [17] has as its target affinity-purified normal human tau (human) (UniProt P10636). Kind of experiment: sandwich ELISA, normal tau at 100 ng/ml, fixed concentration of AT8.
Experiment [18] addresses PHF-tau (abnormally phosphorylated human tau, 64 and 68 kDa forms, from Alzheimer brain) (human) (UniProt P10636). Kind of experiment: sandwich ELISA, PHF-tau diluted 1/20, fixed concentration of AT8.
In experiment [19] the target is purified abnormally phosphorylated tau, mixed with affinity-purified normal tau (human) (UniProt P10636). Kind of experiment: competition ELISA on captured tau mixture; signal of biotinylated AT8 with casein control, no competing antibody (row 37 ng/ml).
Experiment [20] shares this target. Kind of experiment: competition ELISA on captured tau mixture; signal of biotinylated AT8 with casein control, no competing antibody (row 333 ng/ml).
Experiment [21] shares this target. Kind of experiment: competition ELISA on captured tau mixture; unlabeled AT8 at 3 µg/ml, competitor biotinylated AT8 (its signal is read).
For experiment [22] the target is unchanged. Kind of experiment: competition ELISA on captured tau mixture; unlabeled AT8 at 9 µg/ml, competitor biotinylated AT8 (its signal is read).
The target in experiment [23] is affinity-purified normal human tau (human) (UniProt P10636). Kind of experiment: sandwich ELISA, normal tau at 1 µg/ml, fixed concentration of AT8.
Experiment [24] has the same target. Kind of experiment: sandwich ELISA, normal tau at 10 ng/ml, fixed concentration of AT8.
Experiment [25] concerns the target purified abnormally phosphorylated tau, mixed with affinity-purified normal tau (human) (UniProt P10636). Kind of experiment: competition ELISA on captured tau mixture; signal of biotinylated BT2 with casein control, no competing antibody (row 9 µg/ml).
For experiment [26] the target is unchanged. Kind of experiment: competition ELISA on captured tau mixture; signal of biotinylated BT2 with casein control, no competing antibody (row 3 µg/ml).
The target is the same in experiment [27]. Kind of experiment: competition ELISA on captured tau mixture; signal of biotinylated BT2 with casein control, no competing antibody (row 111 ng/ml).
Experiment [28] has the same target. Kind of experiment: competition ELISA on captured tau mixture; unlabeled BT2 at 111 ng/ml, competitor biotinylated AT8 (its signal is read).
The target is the same in experiment [29]. Kind of experiment: competition ELISA on captured tau mixture; signal of biotinylated BT2 with casein control, no competing antibody (row 37 ng/ml).
The target is the same in experiment [30]. Kind of experiment: competition ELISA on captured tau mixture; signal of biotinylated BT2 with casein control, no competing antibody (row 1 µg/ml).
Experiment [31] shares this target. Kind of experiment: competition ELISA on captured tau mixture; unlabeled BT2 at 111 ng/ml, competitor biotinylated BT2 (its signal is read).
For experiment [32] the target is unchanged. Kind of experiment: competition ELISA on captured tau mixture; unlabeled BT2 at 3 µg/ml, competitor biotinylated BT2 (its signal is read).
Experiment [33] has the same target. Kind of experiment: competition ELISA on captured tau mixture; unlabeled BT2 at 3 µg/ml, competitor biotinylated AT8 (its signal is read).
The target is the same in experiment [34]. Kind of experiment: competition ELISA on captured tau mixture; unlabeled BT2 at 9 µg/ml, competitor biotinylated BT2 (its signal is read).
Experiment [35] has the same target. Kind of experiment: competition ELISA on captured tau mixture; unlabeled BT2 at 37 ng/ml, competitor biotinylated AT8 (its signal is read).
The target is the same in experiment [36]. Kind of experiment: competition ELISA on captured tau mixture; unlabeled BT2 at 1 µg/ml, competitor biotinylated BT2 (its signal is read).
The target is the same in experiment [37]. Kind of experiment: competition ELISA on captured tau mixture; unlabeled BT2 at 1 µg/ml, competitor biotinylated AT8 (its signal is read).
Experiment [38] has the same target. Kind of experiment: competition ELISA on captured tau mixture; unlabeled BT2 at 333 ng/ml, competitor biotinylated BT2 (its signal is read).
Experiment [39] shares this target. Kind of experiment: competition ELISA on captured tau mixture; unlabeled BT2 at 37 ng/ml, competitor biotinylated BT2 (its signal is read).
For experiment [40] the target is unchanged. Kind of experiment: competition ELISA on captured tau mixture; signal of biotinylated BT2 with casein control, no competing antibody (row 333 ng/ml).
For experiment [41] the target is unchanged. Kind of experiment: competition ELISA on captured tau mixture; unlabeled BT2 at 9 µg/ml, competitor biotinylated AT8 (its signal is read).
The target is the same in experiment [42]. Kind of experiment: competition ELISA on captured tau mixture; unlabeled BT2 at 333 ng/ml, competitor biotinylated AT8 (its signal is read).

Consider monoclonal antibody AT8, for which the absorbance at 450 nm is 0.576 A450 in [1]; 0.578 A450 in [2]; 0.548 A450 in experiment [3]; 0.36 A450 in [4]; 0.368 A450 in experiment [6]; 0.093 A450 in experiment [7]. In addition, the absorbance at 450 nm came to 0.573 A450 in [8]; 0.155 A450 in [9]; 0.282 A450 in experiment [10]; 0.381 A450 in experiment [11]; 0.369 A450 in experiment [12]; 0.369 A450 in experiment [13]. Besides, the absorbance at 450 nm stood at 0.375 A450 in experiment [15]; 0.059 A450 in [16]; 0.568 A450 in experiment [19]; 0.564 A450 in experiment [20]; 0.054 A450 in experiment [21]; 0.056 A450 in experiment [22]. Moreover, the A150 nm amounted to 1.18 A150 nm in [5]; 0.565 A150 nm in [14]; 0.005 A150 nm in experiment [17]; 1.46 A150 nm in [18]; 0.021 A150 nm in [23]; 0.001 A150 nm in experiment [24].

monoclonal antibody BT2: the absorbance at 450 nm in experiment [25] came out at 0.369 A450; in experiment [26], 0.39 A450; in experiment [27], 0.385 A450; in [28], 0.573 A450; in experiment [29], 0.395 A450; in [30], 0.375 A450. Besides, the absorbance at 450 nm in experiment [31] is 0.245 A450; in [32], 0.088 A450; in experiment [33], 0.557 A450; in experiment [34], 0.071 A450; in [35] it was 0.549 A450; in experiment [36], 0.122 A450. Further, the absorbance at 450 nm in [37] was determined as 0.55 A450; in [38] it was 0.179 A450; in experiment [39], 0.318 A450; in experiment [40], 0.381 A450; in experiment [41], 0.548 A450; in experiment [42], 0.556 A450.

Source of the values: patent publication US8163873.
